Reference: article PMC8760278

How the values were obtained:
[1] = molecular target: monomeric properdin lacking TSR domains 2 and 3 (FPΔ2,3) (human) (UniProt P27918); assay: SEC-MALS; FPΔ2,3 with added CirpA1; S200 10/300 column in PBS, 100 uL at 1 mg/mL
[2] = molecular target: monomeric properdin lacking TSR domains 2 and 3 (FPΔ2,3) (human) (UniProt P27918); assay: MST; RED-NHS labelled FPΔ2,3 constant at 50 nM, CirpA1 2 nM to 64 uM; PBS, 0.05% Tween-20, pH 7.4; Monolith NT.115
[3] = molecular target: properdin from human serum (human) (UniProt P27918)
[4] = molecular target: properdin from human serum (human) (UniProt P27918); remark: listed apart in the source

Chain of UniProt P27918 (P27918 28-469): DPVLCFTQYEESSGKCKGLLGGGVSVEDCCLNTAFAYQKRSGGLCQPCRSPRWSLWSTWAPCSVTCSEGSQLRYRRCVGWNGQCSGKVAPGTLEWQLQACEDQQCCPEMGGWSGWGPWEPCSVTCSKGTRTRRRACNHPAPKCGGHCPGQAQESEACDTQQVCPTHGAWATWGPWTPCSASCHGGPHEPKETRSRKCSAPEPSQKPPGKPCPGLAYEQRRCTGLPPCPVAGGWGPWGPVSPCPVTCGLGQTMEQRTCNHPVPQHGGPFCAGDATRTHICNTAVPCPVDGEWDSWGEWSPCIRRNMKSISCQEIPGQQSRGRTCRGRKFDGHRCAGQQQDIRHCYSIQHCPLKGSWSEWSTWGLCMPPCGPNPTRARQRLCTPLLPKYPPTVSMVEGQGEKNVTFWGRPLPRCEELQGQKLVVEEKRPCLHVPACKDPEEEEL

CirpA1 (Complement inhibitor from R. pulchellus of the alternative pathway 1), refolded (natural protein)
stoichiometry N [1]: 1

CirpA1, recombinant, preparation not stated for the experiment (natural protein)
Kd [2]: 97 nM
inhibition of the alternative pathway (MAC formation), WIESLAB assay, human serum [3]: 13 nM
AP haemolysis assay, human serum, rabbit erythrocytes; CirpA1 purified from insect cells [4]: 1.41e-08

CirpA6 (natural protein)
AP haemolysis assay, human serum, rabbit erythrocytes [4]: 1.4e-08
